The data set can be described thus: self-splicing fitness, log relative to wild type (ln ratio); higher = more splicing; Tetrahymena group I intron in knt gene, E. coli kanamycin selection, DiMSum; sequences stand for … in CUCUCU…GGAGGGAAAAGUUAUCAGGCAUGCACCUGGUAGCUAGUCUUUAAACCAAUAGAUUGCAUCGGUUUAAAAGGCAAGACCGUCAAAUUGCGGGAAAGGGGUCAACAGCCGUUCAGUACCAAGUCUCAGGGGAAACUUUGAGAUGGCCUUGCAAAGGGUAUGGUAAUAAGCUGACGGACAUGGUCCUAACCACGCAGCCAAGUCCUAAGUCAACAGAUCUUCUGUUGAUAUGGAUGCAGUUCACAGACUAAAUGUCGGUCGGGGAAGAUGUAUUCUUCUCAUAAGAUAUAGUCGGACCUCUCCUUAAUGGGAGCUAGCGGAUGAAGUGAUGCAACACUGGAGCCGCUGGGAACUAAUUUGUAUGCGAAAGUAUAUUGAUUAGUUUUGGAGUACUCGUGGUCG
The essentials: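 Pooled colonies went to amplicon sequencing on an Illumina HiSeq 2500 after six replicate transformations. The plates were LB agar with 100 μg/mL carbenicillin, 50 μM IPTG and 0.2% rhamnose, with or without 25 μg/mL kanamycin, incubated overnight at 37°C or 30°C. The E. coli BL21(DE3) library had all eight P1ex-region intron nucleotides randomised, the intron placed in the knt kanamycin-resistance gene on pET-22b(+). DiMSum fitness is the error-weighted combination of replicate fold changes, kanamycin against none, normalised to wild type.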

± gives the uncertainty stated by the source.

For CUUAAGCAAUAUUACGUUGA, for the setting “37 °C”, the “self-splicing fitness (ln)” value is -2.78 ± 0.29. On to CUCCAGCAAUAUUACGAAUG, for which the “self-splicing fitness (ln)” value was -1.39 ± 0.083 (30 °C) and -0.438 ± 0.11 (37 °C). Turning to CUCAAGCAAUAUUACGCAAC, the “self-splicing fitness (ln)” value (30 °C) is -2.65 ± 0.36. CAGCAGCAAUAUUACGAUUG: the “self-splicing fitness (ln)” value (30 °C) was -2.36 ± 0.093 and the “self-splicing fitness (ln)” value (37 °C) is -0.731 ± 0.09. Taken in the same sequence, the figures for GAGGAGCAAUAUUACGGACA were -3.15 ± 0.33 and -1.96 ± 0.3.

Consider UGUUAGCAAUAUUACGUGCC, for which the “self-splicing fitness (ln)” value (30 °C) was -2.05 ± 0.17 and the “self-splicing fitness (ln)” value (37 °C) is -0.583 ± 0.21.

UCAGAGCAAUAUUACGUUCC: the “self-splicing fitness (ln)” value is -3.84 ± 0.47 (30 °C) and -2.57 ± 0.49 (37 °C). As for CAUGAGCAAUAUUACGCCUA, the “self-splicing fitness (ln)” value (30 °C) was -2.28 ± 0.24 and the “self-splicing fitness (ln)” value (37 °C) was -1.75 ± 0.26.

With AAUCAGCAAUAUUACGGAUA, the “self-splicing fitness (ln)” value is -0.0268 ± 0.069 (30 °C) and 0.49 ± 0.086 (37 °C). Turning to UUGGAGCAAUAUUACGACGC, the “self-splicing fitness (ln)” value (37 °C) was -2.47 ± 0.33. For the sequence AACCAGCAAUAUUACGUGAA, the “self-splicing fitness (ln)” value was -0.843 ± 0.074 (30 °C) and -0.516 ± 0.087 (37 °C).

In the case of UCCCAGCAAUAUUACGGGAA, the “self-splicing fitness (ln)” value was -3.21 ± 0.2 (30 °C) and -1.83 ± 0.14 (37 °C). Take CCGCAGCAAUAUUACGGACU: the “self-splicing fitness (ln)” value runs as follows: (30 °C) -3.14 ± 0.17; (37 °C) -2.31 ± 0.25. Consider AGCGAGCAAUAUUACGGUUC, for which the “self-splicing fitness (ln)” value was -2.18 ± 0.24 (30 °C) and -2.32 ± 0.3 (37 °C).

Consider GCCUAGCAAUAUUACGCCGA, for which the “self-splicing fitness (ln)” value (30 °C) is -0.66 ± 0.49. Consider UAAAAGCAAUAUUACGAAUA, for which the “self-splicing fitness (ln)” value was -0.61 ± 0.11 (30 °C) and -0.627 ± 0.11 (37 °C).

For the sequence UGCAAGCAAUAUUACGAUUG, the “self-splicing fitness (ln)” value is, setting by setting: (30 °C) -1.93 ± 0.14; (37 °C) -1.55 ± 0.12. Taken in the same sequence, the figures for UCAUAGCAAUAUUACGAUUC were -2.39 ± 0.18 and -2.6 ± 0.33.

For GCCAAGCAAUAUUACGUCAU, the “self-splicing fitness (ln)” value (30 °C) was -2.96 ± 0.22 and the “self-splicing fitness (ln)” value (37 °C) is -2.59 ± 0.18. ACAGAGCAAUAUUACGCCAU: the “self-splicing fitness (ln)” value by setting is: (30 °C) -3.46 ± 0.42; (37 °C) -1.97 ± 0.23. Taken in the same sequence, the figures for UCCCAGCAAUAUUACGACUG were -3.58 ± 0.2 and -3.16 ± 0.32.

As to CUAAAGCAAUAUUACGUUGC, the “self-splicing fitness (ln)” value was -3.49 ± 0.18 (30 °C) and -2.45 ± 0.22 (37 °C). The like results for GCAAAGCAAUAUUACGCAGU were, in that order, -3.23 ± 0.28 and -2.42 ± 0.23. The like results for CCCGAGCAAUAUUACGUGCA were, in that order, -3.5 ± 0.2 and -1.52 ± 0.15.

GCAGAGCAAUAUUACGAGAU: the “self-splicing fitness (ln)” value by setting is: (30 °C) -2.04 ± 0.29; (37 °C) -2.15 ± 0.39. Taken in the same sequence, the figures for CUAAAGCAAUAUUACGAGGC were -3.6 ± 0.16 and -1.92 ± 0.16. The like results for UUGUAGCAAUAUUACGUCAU were, in that order, -2.87 ± 0.18 and -1.63 ± 0.13. The like results for CGAGAGCAAUAUUACGGCAG were, in that order, -2 ± 0.18 and -1.33 ± 0.22.

For the sequence UCCCAGCAAUAUUACGGAUA, the “self-splicing fitness (ln)” value reads like this: (30 °C) -1.51 ± 0.093; (37 °C) -0.799 ± 0.084. Taken in the same sequence, the figures for AACUAGCAAUAUUACGUCGC were -2.63 ± 0.11 and -1.08 ± 0.14. In the case of CAACAGCAAUAUUACGCAAU, the “self-splicing fitness (ln)” value was -2.87 ± 0.16 (30 °C) and -1.87 ± 0.15 (37 °C). In the case of UAGCAGCAAUAUUACGUUCC, the “self-splicing fitness (ln)” value by setting is: (30 °C) -3.78 ± 0.4; (37 °C) 0.00366 ± 0.21.

For GAAGAGCAAUAUUACGCUAA, the “self-splicing fitness (ln)” value (37 °C) was -2.22 ± 0.3. Regarding GCGAAGCAAUAUUACGUGCU, the “self-splicing fitness (ln)” value (30 °C) was -2.63 ± 0.16 and the “self-splicing fitness (ln)” value (37 °C) was -2.75 ± 0.2. For the sequence GAGCAGCAAUAUUACGCCCC, under “30 °C”, the “self-splicing fitness (ln)” value is -2.24 ± 0.47.

AUUUAGCAAUAUUACGGGAG: the “self-splicing fitness (ln)” value by setting is: (30 °C) -2.97 ± 0.41; (37 °C) -0.342 ± 0.16. Taken in the same sequence, the figures for CUUAAGCAAUAUUACGAACG were -0.163 ± 0.11 and 0.187 ± 0.14. As to ACGGAGCAAUAUUACGCGAU, the “self-splicing fitness (ln)” value (37 °C) is -1.2 ± 0.17. For UGCCAGCAAUAUUACGGAUA, the “self-splicing fitness (ln)” value was -1.27 ± 0.091 (30 °C) and -0.573 ± 0.1 (37 °C). Taken in the same sequence, the figures for UAGAAGCAAUAUUACGCGAC were -3.67 ± 0.32 and -2.08 ± 0.33.

These data come from the supplement of paper PMC7877785.
